Measurements published in patent US20220242950A1 (CANTARGIA, published 2022).

Columns and labels:
[1] = target: T1, human IL1RAP on the cell surface (human, UniProt Q9NPH3 21-570); assay: cell-based or functional assay
T1 sequence (looked up): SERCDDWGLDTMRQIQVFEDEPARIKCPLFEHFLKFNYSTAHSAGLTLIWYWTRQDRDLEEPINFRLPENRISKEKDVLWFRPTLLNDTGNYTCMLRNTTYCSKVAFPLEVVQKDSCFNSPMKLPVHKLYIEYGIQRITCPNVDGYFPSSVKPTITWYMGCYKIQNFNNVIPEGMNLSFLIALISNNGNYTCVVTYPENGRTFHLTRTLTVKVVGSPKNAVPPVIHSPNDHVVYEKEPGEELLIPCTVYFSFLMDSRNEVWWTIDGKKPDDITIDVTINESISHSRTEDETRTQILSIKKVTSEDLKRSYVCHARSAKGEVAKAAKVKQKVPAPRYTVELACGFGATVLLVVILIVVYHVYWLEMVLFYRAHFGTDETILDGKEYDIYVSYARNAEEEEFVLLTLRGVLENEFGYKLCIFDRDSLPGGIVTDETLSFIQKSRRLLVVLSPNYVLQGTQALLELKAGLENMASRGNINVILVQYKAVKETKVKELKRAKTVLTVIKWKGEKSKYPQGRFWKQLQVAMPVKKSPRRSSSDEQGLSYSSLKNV

[2] = target: T2, recombinant hIL1RAP Domain1+2+3 (aa21-367) (human, UniProt Q9NPH3 21-367); assay: bio-layer interferometry, human IL1RAP
T2 construct: Numbering on Uniprot Q9NPH3
T2 sequence (looked up): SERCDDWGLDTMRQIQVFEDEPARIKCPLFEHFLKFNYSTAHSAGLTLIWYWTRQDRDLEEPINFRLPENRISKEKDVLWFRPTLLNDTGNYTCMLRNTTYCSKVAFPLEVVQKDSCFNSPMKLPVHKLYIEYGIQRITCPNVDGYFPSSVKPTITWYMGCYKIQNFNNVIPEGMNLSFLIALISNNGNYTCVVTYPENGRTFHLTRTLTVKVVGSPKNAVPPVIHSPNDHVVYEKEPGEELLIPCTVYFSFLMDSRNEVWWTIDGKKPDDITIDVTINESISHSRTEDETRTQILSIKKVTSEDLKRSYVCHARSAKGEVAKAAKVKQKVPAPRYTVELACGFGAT
Method: Affinity measurements were done on BLItz™ Label-Free Protein Analysis System from ForteBio, using the Basic Kinetics module in the BLItz Pro 1.3.1.3 software from Molecular Devices. Protein A biosensors were hydrated in blocking buffer (PBS, 0.5% BSA, 0.05% Tween 20, pH 7.4) for minimum 10 min at room temperature before coating. Protein A biosensors were coated with antibodies by dipping the biosensors in 200 μl of antibody solution (10 μg/ml in blocking buffer) for 30 min at room temperature. The sensors were then incubated in 200 μl blocking buffer for at least 10 min before use. […] The baseline was made in blocking buffer with a duration time of 30 sec. Association was made for 120 sec in hIL1RAP followed by 120 sec dissociation in blocking buffer.
The antibodies were characterized for A) binding (ELISA analysis, human and cynomolgus monkey IL1RAP), B) inhibition of cytokine signaling (HEK-Blue™ assay), C) affinity (Bio-layer interferometry), D) size heterogeneity (SE-HPLC) and E) yield (concentration, A280). […] SE-HPLC was performed using standard procedures and PBS as running buffer. Affinity and cytokine inhibition were measured as previously described in Example 10. All 25 humanized clones were analyzed for blocking activity on IL-1α, IL-1β and IL-33 signaling while only the clones that had retained the inhibitory activity similar to chimeric 48D2 were analyzed for IL-36 inhibition.
KD values for affinity towards human IL1RAP are shown in Table 11 for the humanized 48D2 variants. Affinity was measured using bio-layer interferometry. […] See also Table 4 for a direct comparison of chimeric 48D2, humanized 48D2 variant VH5:VL4, and a humanized and de-immunized 48D2 variant VH5.GL:VL4.

[3] = target: T2, recombinant hIL1RAP Domain1+2+3 …; assay: binding ELISA, coated recombinant hIL1RAP aa21-367
[4] = target: T3, recombinant mf IL1RAP aa21-367 (cynomolgus monkey (Macaca fascicularis), UniProt A0A2K5X5J5 21-367); assay: binding ELISA, coated recombinant mf IL1RAP aa21-367
T3 construct: also called cynomolgus monkey IL1RAP; cyno IL1RAP
T3 sequence: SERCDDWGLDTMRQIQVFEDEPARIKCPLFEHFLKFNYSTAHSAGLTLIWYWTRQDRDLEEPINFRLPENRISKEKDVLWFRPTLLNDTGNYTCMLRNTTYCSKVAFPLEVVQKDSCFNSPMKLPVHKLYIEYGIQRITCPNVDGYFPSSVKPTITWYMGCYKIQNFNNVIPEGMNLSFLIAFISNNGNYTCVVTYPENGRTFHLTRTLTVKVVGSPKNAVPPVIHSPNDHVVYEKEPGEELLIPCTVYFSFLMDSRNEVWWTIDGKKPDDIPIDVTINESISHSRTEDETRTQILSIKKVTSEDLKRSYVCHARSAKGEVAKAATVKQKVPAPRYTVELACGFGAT

| Binder | IC50 of IL-1β signaling (HEK-Blue assay) [1] | Kd [2] | IC50 [3] | IC50 [4] | IC50 of IL-1α signaling (HEK-Blue assay) [1] | IC50 of IL-33 signaling (HEK-Blue assay) [1] |
| --- | --- | --- | --- | --- | --- | --- |
| h48D2 VH3:VL4 (antibody, human IgG1, kappa, L234A L235A, V domains shown, Humanized; also called VL4:VH3) VH: EVQLLESGGGLVLPGGSLRLSCAASGPSLSHFDITWVRQAPGKGLEWVSTISPGVSTYYASWAKSRFTISRDNSKNTLYLQMSSLRAEDTAVYYCARGGVGSSWKAFDLWGLGTTVTVSS VL: ELVMTQSPSSVSASVGDRVTITCQASESISTALAWYQQKPGKAPKLLIYKASTLPSGVPSRFSGSGSGTDFTLTINSLQPEDFATYYCQQGFSSGNVHNAFGGGTKVEIKR | 0.0223 µM | 0.0296 µM | 0.0263 µg/mL | 0.0303 µg/mL |  |  |
| h48D2 VH2:VL4 (antibody, human IgG1, kappa, L234A L235A, V domains shown, Humanized; also called VL4:VH2) VH: EVQLVESGGALVQPGGSLRLSCIVSGPSLSHFDITWFRQAPGKGLEWVATISPGVSTYYASWAKSRFTISTDTSKNTLFLQMDSLRAEDTAVYYCARGGVGSSWKAFDLWGPGTLVTVSS VL: ELVMTQSPSSVSASVGDRVTITCQASESISTALAWYQQKPGKAPKLLIYKASTLPSGVPSRFSGSGSGTDFTLTINSLQPEDFATYYCQQGFSSGNVHNAFGGGTKVEIKR | 0.00136 µM | 0.0112 µM | 0.0262 µg/mL | 0.0312 µg/mL | ~4130 µM | 0.0864 µM |
| h48D2 VH4:VL1 (antibody, human IgG1, kappa, L234A L235A, V domains shown, Humanized; also called VL1:VH4) VH: QVQLQESGPGLVKPSETLSLTCTVSGPSLSHFDITWIRQPPGKGLEWIGTISPGVSTYYASWAKSRFTISVDTSKNQFSLKLTSVTAADTATYYCARGGVGSSWKAFDLWGPGTLVTVSS VL: DIVMTQSPSSLSASVGDRVTITCQASESISTALAWYQQKPGKAPKLLIYKASTLPSGVPSRFSGSGSGTDFTLTISSLQPEDFATYYCQQGFSSGNVHNAFGGGTKVVIKR | 0.00295 µM | 0.0197 µM | 0.0308 µg/mL | 0.0316 µg/mL |  |  |
| h48D2 VH3:VL3 (antibody, human IgG1, kappa, L234A L235A, V domains shown, Humanized; also called VL3:VH3) VH: EVQLLESGGGLVLPGGSLRLSCAASGPSLSHFDITWVRQAPGKGLEWVSTISPGVSTYYASWAKSRFTISRDNSKNTLYLQMSSLRAEDTAVYYCARGGVGSSWKAFDLWGLGTTVTVSS VL: DILLTQTPSVVSASVGDRVTITCQASESISTALAWYQQKPGQAPRLLIYKASTLPSGVPSRFRGSGSGTDFTLTITSLQPEDFATYYCQQGFSSGNVHNAFGGGTRLEIKR | 0.0105 µM | 0.0274 µM | 0.0281 µg/mL | 0.0279 µg/mL |  |  |
| h48D2 VH1:VL5 (antibody, human IgG1, kappa, L234A L235A, V domains shown, Humanized; also called VL5:VH1) VH: EVQLEESGGGLVKPGGSLRLSCAASGPSLSHFDITWVRQAPGKGLEWVSTISPGVSTYYASWAKSRFTISRDNSKNTLYLQMNSLRAEDTAVYYCARGGVGSSWKAFDLWGRGTLVTVSS VL: APVLTQSPATLEASVGDRVTITCQASESISTALAWYQQKPGQPPKLLIYKASTLPSGVPSRFSGSGSGTEFTLTISDLESDDAATYYCQQGFSSGNVHNAFGGGTEVVVKR | 0.0202 µM | 0.0316 µM | 0.0234 µg/mL | 0.0242 µg/mL | 0.528 µM | 0.0747 µM |
| h48D2 VH3:VL2 (antibody, human IgG1, kappa, L234A L235A, V domains shown, Humanized; also called VL2:VH3) VH: EVQLLESGGGLVLPGGSLRLSCAASGPSLSHFDITWVRQAPGKGLEWVSTISPGVSTYYASWAKSRFTISRDNSKNTLYLQMSSLRAEDTAVYYCARGGVGSSWKAFDLWGLGTTVTVSS VL: QIVLTQSPATLSASVGDRVTITCQASESISTALAWYQQKPGKAPKLLIYKASTLPSGVPSRFSGSGSGTEFTLTISSLQPDDSATYYCQQGFSSGNVHNAFGQGTKLEIKR | 0.00911 µM | 0.0224 µM | 0.0258 µg/mL | 0.0274 µg/mL |  | 0.474 µM |
| h48D2 VH3:VL5 (antibody, human IgG1, kappa, L234A L235A, V domains shown, Humanized; also called VL5:VH3) VH: EVQLLESGGGLVLPGGSLRLSCAASGPSLSHFDITWVRQAPGKGLEWVSTISPGVSTYYASWAKSRFTISRDNSKNTLYLQMSSLRAEDTAVYYCARGGVGSSWKAFDLWGLGTTVTVSS VL: APVLTQSPATLEASVGDRVTITCQASESISTALAWYQQKPGQPPKLLIYKASTLPSGVPSRFSGSGSGTEFTLTISDLESDDAATYYCQQGFSSGNVHNAFGGGTEVVVKR | 0.00987 µM | 0.0344 µM | 0.0232 µg/mL | 0.0279 µg/mL | 0.288 µM | 0.474 µM |
| h48D2 VH2:VL5 (antibody, human IgG1, kappa, L234A L235A, V domains shown, Humanized; also called VL5:VH2) VH: EVQLVESGGALVQPGGSLRLSCIVSGPSLSHFDITWFRQAPGKGLEWVATISPGVSTYYASWAKSRFTISTDTSKNTLFLQMDSLRAEDTAVYYCARGGVGSSWKAFDLWGPGTLVTVSS VL: APVLTQSPATLEASVGDRVTITCQASESISTALAWYQQKPGQPPKLLIYKASTLPSGVPSRFSGSGSGTEFTLTISDLESDDAATYYCQQGFSSGNVHNAFGGGTEVVVKR | 0.00577 µM | 0.012 µM | 0.0249 µg/mL | 0.0279 µg/mL | 0.401 µM | 0.183 µM |
| h48D2 VH2:VL2 (antibody, human IgG1, kappa, L234A L235A, V domains shown, Humanized; also called VL2:VH2) VH: EVQLVESGGALVQPGGSLRLSCIVSGPSLSHFDITWFRQAPGKGLEWVATISPGVSTYYASWAKSRFTISTDTSKNTLFLQMDSLRAEDTAVYYCARGGVGSSWKAFDLWGPGTLVTVSS VL: QIVLTQSPATLSASVGDRVTITCQASESISTALAWYQQKPGKAPKLLIYKASTLPSGVPSRFSGSGSGTEFTLTISSLQPDDSATYYCQQGFSSGNVHNAFGQGTKLEIKR | 0.000882 µM | 0.00733 µM | 0.0261 µg/mL | 0.0292 µg/mL |  | 0.0458 µM |
| h48D2 VH2:VL3 (antibody, human IgG1, kappa, L234A L235A, V domains shown, Humanized; also called VL3:VH2) VH: EVQLVESGGALVQPGGSLRLSCIVSGPSLSHFDITWFRQAPGKGLEWVATISPGVSTYYASWAKSRFTISTDTSKNTLFLQMDSLRAEDTAVYYCARGGVGSSWKAFDLWGPGTLVTVSS VL: DILLTQTPSVVSASVGDRVTITCQASESISTALAWYQQKPGQAPRLLIYKASTLPSGVPSRFRGSGSGTDFTLTITSLQPEDFATYYCQQGFSSGNVHNAFGGGTRLEIKR | 0.00366 µM | 0.0121 µM | 0.0273 µg/mL | 0.0314 µg/mL |  | 1.95 µM |
| h48D2 VH4:VL2 (antibody, human IgG1, kappa, L234A L235A, V domains shown, Humanized; also called VL2:VH4) VH: QVQLQESGPGLVKPSETLSLTCTVSGPSLSHFDITWIRQPPGKGLEWIGTISPGVSTYYASWAKSRFTISVDTSKNQFSLKLTSVTAADTATYYCARGGVGSSWKAFDLWGPGTLVTVSS VL: QIVLTQSPATLSASVGDRVTITCQASESISTALAWYQQKPGKAPKLLIYKASTLPSGVPSRFSGSGSGTEFTLTISSLQPDDSATYYCQQGFSSGNVHNAFGQGTKLEIKR | 0.00555 µM | 0.0132 µM | 0.0322 µg/mL | 0.0291 µg/mL |  |  |
